Measured values published in patent publication US20170210824A1.

Target: 3-pTza peptide library (Ac-Cys.G/A.G/A.G/A.G/A.X.G/A.G/A.G/A.G/A-CONH2, X = 3-pTza)
Assay: 3-pTza peptide dot blot array

B1: 3-pHis mAb SC44-8 (antibody, V domains shown)
VH: ESGRGLVQPGGSLTLTCTASGFSIDSYGFSWVRQAPGKGLEHIGYLTAGGRAFYASWAKSRSTITRNTNENTVTLKMTSLTAADTATYFCAKLGSGNPVAIWGPGTLVTVSS
VL: DPVMTPTPSFTSAAVGGTVTINCQSSQSVWRNKNLAWYQQKPGQPPKRLIYAIATLDSGVPSRFSGSGSGTQFTLTISDVQCDDAATYYCVGHYGSENDAYYAFGGGTEVVVKG
lowest amount detected: 800 pg
